Laboratory results: patent US8680046B2, “Inhibitors of viral integrase and methods of use” (Integratech Proteomics, LLC, priority 2009, dated 2014)
Ends that are not written are not given here. Peptide text beside a SMILES is read from it.

Experiments:
peptide solubility = assay type: physicochemical; details: effect of C-terminal tail
HPVE6 = HPVE6 (Human papillomavirus type 16, UniProt P03126); details: two-hybrid
Text: (§1) To identify IN-binding peptides, yeast producing HIV integrase was mated with yeast harboring a random peptide library (15 amino acids in length; 27 million diverse) fused to the VP16 activation domain. […] The peptide was cloned as a C-terminal fusion with VP16-Zsgreen and tested for interaction with the GALDB or GALDB-IN fusion in AH109 Mat a, trp1-901, leu2-3, 112, ura3-52, his3-200, gal4 Δ, gal 80Δ, LYS2::GAL1UAS-GAL1TATA-HIS3, GAL2UAS-GAL2TATA-ADE2, URA3:MEL1UAS-MEL1TATA-lacZ. Growth on -ade plates indicated activation of a selectable reporter.

HPVE7 = HPVE7 (Human papillomavirus type 16, UniProt P03129); details: two-hybrid
Sequence of HPVE7 (P03129 whole entry): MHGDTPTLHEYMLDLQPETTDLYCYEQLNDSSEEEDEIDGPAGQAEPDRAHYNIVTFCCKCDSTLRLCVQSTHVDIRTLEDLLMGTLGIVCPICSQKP
Text: as §1

HIV IN [1] = target: T1, HIV IN (Human immunodeficiency virus type 1 group M subtype B, UniProt P12497); assay type: biochemical; details: summary statement
HIV IN [2] = target: T1, HIV IN; assay: yeast two-hybrid screen, growth on -ade plates; assay type: cell-based; design: HIV IN was amplified from the pNL4-3 based provirus (R9) as template and cloned into two expression vectors; expressed in transfected cells; host or cells: Saccharomyces cerevisiae AH109; details: peptide fused to VP16 activation domain, GALDB-IN bait, FIG. 1
Text: A yeast-based screening platform for identifying inhibitors of IN was constructed. In this platform, HIV IN was amplified from the pNL4-3 based provirus (R9) as template and cloned into two expression vectors resulting in a fusion of IN C-terminus to the GAL4 DNA binding domain (GALDB) and the GAL4 activation domain (GALAD) respectively. By western blot analysis, GALAD-IN was detected (not shown); however, GALDB-IN was barely detectable.
Binders were confirmed by plasmid linkage analysis (FIG. 1).

Sequence of HPVE6 (P03126 whole entry, the tested form may be a part): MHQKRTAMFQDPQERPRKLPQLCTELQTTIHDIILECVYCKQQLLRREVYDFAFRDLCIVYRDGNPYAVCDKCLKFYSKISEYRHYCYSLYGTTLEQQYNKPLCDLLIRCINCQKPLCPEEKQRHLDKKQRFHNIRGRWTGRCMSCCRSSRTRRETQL

For `CC[C@H](C)[C@H](NC(=O)[C@H](CC(C)C)NC(=O)[C@@H](NC(=O)[C@@H](NC(=O)[C@H](CCC(=O)O)NC(=O)[C@H](Cc1ccc(O)cc1)NC(=O)[C@@H](N)CC(C)C)[C@@H](C)O)[C@@H](C)CC)C(=O)N[C@@H](CC(C)C)C(=O)N[C@@H](CC(C)C)C(=O)N[C@@H](Cc1ccccc1)C(=O)N[C@@H](CC(C)C)C(=O)N[C@@H](CC(=O)O)C(=O)N[C@H](C(=O)N[C@@H](CC(=O)O)C(=O)N[C@H](C(=O)NCC(=O)N[C@@H](CCCCN)C(=O)N[C@@H](CCCCN)C(=O)N[C@@H](CCCNC(=N)N)C(=O)O)[C@@H](C)O)C(C)C` [B05751] (H-LYETILILLFLDVDTGKKR-OH; N-terminus and C-terminus assumed), the peptide solubility (peptide solubility) was “increased peptide solubility”.

In the case of `CC[C@H](C)[C@H](NC(=O)[C@H](CC(C)C)NC(=O)[C@@H](NC(=O)[C@@H](NC(=O)[C@H](CCC(=O)O)NC(=O)[C@H](Cc1ccc(O)cc1)NC(=O)[C@@H](N)CC(C)C)[C@@H](C)O)[C@@H](C)CC)C(=O)N[C@@H](CC(C)C)C(=O)N[C@@H](CC(C)C)C(=O)N[C@@H](Cc1ccccc1)C(=O)N[C@@H](CC(C)C)C(=O)N[C@@H](CC(=O)O)C(=O)N[C@H](C(=O)N[C@@H](CC(=O)O)C(=O)N[C@H](C(=O)NCC(=O)N[C@@H](CC(=O)O)C(=O)N[C@@H](CCC(=O)O)C(=O)N[C@@H](CC(=O)O)C(=O)O)[C@@H](C)O)C(C)C` [B05759] (H-LYETILILLFLDVDTGDED-OH; N-terminus and C-terminus assumed), the peptide solubility (peptide solubility) was “increased peptide solubility”.

In the case of LYETILILLFLDVDTG [SEQ ID NO:1], the “interaction with false bait HPVE6” value (HPVE6) was “not false baits”, the “interaction with false bait HPVE7” value (HPVE7) was “not false baits” and the “inhibition of integration of viral DNA into target DNA” value (HIV IN [1]) was “inhibit the integration of viral DNA into the target DNA”. The “interaction with HIV IN by two-hybrid” value (HIV IN [2]) was “interacted with the viral target”.
